Experimental findings from patent US20080274950A1 (BABRAHAM INSTITUTE, published 2008) are described below.

Residue numbers refer to the chain shown, from its start. Numbers in names are those of the source.

For series [1], the target named is T1, full length chicken N-cadherin with the mutation E89A expressed on K562 cells (chicken, UniProt P10288 165-912, E89A).
T1 construct: whole, on cells; also called cells expressing the E89A mutation; K562 E89A
T1 sequence (looked up): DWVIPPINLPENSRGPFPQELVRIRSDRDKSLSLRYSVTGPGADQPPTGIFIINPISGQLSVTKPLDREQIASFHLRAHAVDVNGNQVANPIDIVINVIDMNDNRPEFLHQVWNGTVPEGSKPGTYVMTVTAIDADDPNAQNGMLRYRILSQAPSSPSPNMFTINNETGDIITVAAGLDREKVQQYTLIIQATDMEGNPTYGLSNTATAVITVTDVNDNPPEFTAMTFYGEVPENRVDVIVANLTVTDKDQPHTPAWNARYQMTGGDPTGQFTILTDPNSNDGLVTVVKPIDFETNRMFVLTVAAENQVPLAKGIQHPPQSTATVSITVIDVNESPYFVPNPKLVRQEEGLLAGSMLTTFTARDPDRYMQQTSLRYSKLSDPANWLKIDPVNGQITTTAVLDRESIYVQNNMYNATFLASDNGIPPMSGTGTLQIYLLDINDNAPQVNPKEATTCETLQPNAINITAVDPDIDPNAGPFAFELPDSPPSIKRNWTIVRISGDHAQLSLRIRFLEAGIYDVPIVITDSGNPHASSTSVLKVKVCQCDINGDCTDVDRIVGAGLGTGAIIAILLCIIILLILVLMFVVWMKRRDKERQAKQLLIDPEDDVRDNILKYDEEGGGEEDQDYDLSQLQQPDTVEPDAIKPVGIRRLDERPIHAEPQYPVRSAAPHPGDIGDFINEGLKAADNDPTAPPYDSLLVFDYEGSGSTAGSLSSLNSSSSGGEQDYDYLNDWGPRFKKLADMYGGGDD
Nature of the series: adhesion of K562 transfectants to coated N-cadherin Fc. On the procedure:
(§1) Adhesion tests were conducted substantially as described in Example 1. Briefly, K562 Cells or L cells transfected with wild type or mutant N-cadherin were allowed to settle for 45 minutes at 37° C. onto N-cadherin Fc fusion proteins coated at 1 μg/ml to a 96 well plate. Non-adherent cells were then washed off and residual adherent cells were quantitated by measuring acid phosphatase activity. Assays were conducted in quadruplicate and results are expressed as % cells adhering +/−SEM.

Series [2] addresses T2, full length chicken N-cadherin with the N-terminus extended by two glycine residues (GG) expressed on K562 … (chicken, UniProt P10288 165-912).
T2 construct: whole, on cells; also called cells expressing the GG N-terminal extension mutant; K562 GG
T2 sequence: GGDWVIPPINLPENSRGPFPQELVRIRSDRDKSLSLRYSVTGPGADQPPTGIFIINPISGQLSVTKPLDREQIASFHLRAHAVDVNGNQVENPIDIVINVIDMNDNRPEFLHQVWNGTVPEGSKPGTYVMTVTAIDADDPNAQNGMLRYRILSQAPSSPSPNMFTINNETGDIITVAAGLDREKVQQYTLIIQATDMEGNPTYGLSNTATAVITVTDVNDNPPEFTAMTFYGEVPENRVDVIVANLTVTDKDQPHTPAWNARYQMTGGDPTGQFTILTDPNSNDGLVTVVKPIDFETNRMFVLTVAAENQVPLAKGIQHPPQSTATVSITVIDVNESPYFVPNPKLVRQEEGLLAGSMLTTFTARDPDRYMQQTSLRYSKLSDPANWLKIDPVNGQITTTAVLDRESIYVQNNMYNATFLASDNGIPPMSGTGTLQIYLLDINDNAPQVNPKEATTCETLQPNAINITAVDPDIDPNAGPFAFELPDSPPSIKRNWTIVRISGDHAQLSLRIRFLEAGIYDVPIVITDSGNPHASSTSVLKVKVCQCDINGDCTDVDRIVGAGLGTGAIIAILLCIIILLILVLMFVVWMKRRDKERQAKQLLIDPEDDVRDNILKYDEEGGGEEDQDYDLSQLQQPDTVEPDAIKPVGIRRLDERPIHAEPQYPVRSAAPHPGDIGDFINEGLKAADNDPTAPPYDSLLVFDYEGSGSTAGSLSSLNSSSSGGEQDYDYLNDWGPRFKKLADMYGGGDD
The series can be described thus: adhesion of K562 transfectants to N-cadherin Fc coated at 1 µg/ml. Here is the method:
as §1

Series [3] concerns the molecule itself. Nature of the series: gel filtration on Superdex-200, 1 mM CaCl2. An excerpt: Soluble N-cadherin-Fc fusion protein was obtained by transient transfection of Cos7 Cells as previously described (Corps et al., 2003). […] Soluble N-cadherin-Fc was routinely quantitated using an ELISA for Fc, standardised against purified cadherin-Fc fusion proteins.
(In gel filtration, larger molecules generally elute earlier.)

Series [4] concerns the molecule itself. The series can be described thus: bead aggregation assay, 1.25 mM CaCl2. On the procedure: (§2) Dynabeads (Dynal Biotech) coupled to Protein A were coated with N-cadherin Fc at 1 μg/ml in calcium and magnesium-free HBSS containing 0.1% Tween 20, 1% FCS and 4 mM EDTA. Eppendorf tubes containing beads and fusion protein were rotated slowly for 1 hour at room temperature to allow binding to take place. The beads were then washed in the above assay buffer lacking EDTA and then resuspended in the same buffer supplemented with 1.25 mM CaCl₂. Beads were allowed to aggregate in a volume of 100 μl for 2 hours at 37° C. by slow rotation, in an eppendorf tube, at approximately 20 rpm. Aggregation was then assessed by light microscopy.
In the experiments described so far in this example, disruption of the salt bridge prevented intramolecular docking of Trp 2 in one or both components of the dimer. In an alternative strategy to prevent intramolecular docking, we removed Trp2 by introducing the mutation W2G or blocked the hydrophobic acceptor pocket with an isoleucine side chain projecting into the cavity using the mutation A801. N-cadherin Fc fusion proteins with these mutations were then tested against our panel of K562 transfectants (FIG. 17a). In keeping with the explanation given in FIG. 5, the W2G mutant acted as a strand acceptor and therefore adhered strongly to the E89A mutant whereas the A80I mutant was a strand donor and adhered to the GG extension mutant. […] In contrast, beads coated with the W2G or A801 mutants and tested separately clustered in twos and threes, whereas beads coated with the negative control mutant, D134A, were entirely monodisperse. To test whether all five extracellular domains of N-cadherin (EC1-EC5) are necessary for the strong adhesive interaction between the complementary mutants, we compared the adhesive activity of the W2G mutant prepared as a full length (EC1-EC5) Fc fusion protein with that of the same mutant prepared as a truncated construct containing only cadherin domains EC1 and EC2.

The target of series [5] is T3, chicken N-cadherin Fc fusion protein with the pocket-blocking mutation A80I (chicken; human, UniProt P10288 165-728, A80I).
T3 construct: extracellular domain; also called A80I mutant; not shown: hinge region, CH2 and CH3 domains of human IgG1 heavy chain (vector pIgSig)
T3 sequence (looked up): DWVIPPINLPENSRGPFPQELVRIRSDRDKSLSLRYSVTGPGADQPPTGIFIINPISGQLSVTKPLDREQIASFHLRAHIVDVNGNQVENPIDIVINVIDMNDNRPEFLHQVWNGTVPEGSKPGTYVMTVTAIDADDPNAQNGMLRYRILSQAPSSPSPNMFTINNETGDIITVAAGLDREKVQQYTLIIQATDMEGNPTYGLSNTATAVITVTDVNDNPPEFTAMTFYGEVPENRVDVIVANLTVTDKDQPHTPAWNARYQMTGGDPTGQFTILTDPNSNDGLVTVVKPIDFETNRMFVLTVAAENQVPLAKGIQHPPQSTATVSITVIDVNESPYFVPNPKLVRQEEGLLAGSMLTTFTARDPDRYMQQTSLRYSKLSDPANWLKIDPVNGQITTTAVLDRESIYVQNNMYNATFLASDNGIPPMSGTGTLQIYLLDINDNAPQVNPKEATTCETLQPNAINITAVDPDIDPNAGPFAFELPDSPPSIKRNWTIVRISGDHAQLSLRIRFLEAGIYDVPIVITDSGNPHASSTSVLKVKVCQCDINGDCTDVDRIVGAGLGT
The series can be described thus: bead aggregation assay, Protein A Dynabeads coated separately and mixed, 1.25 mM CaCl2. Here is the method:
as §2
In the experiments described so far in this example, disruption of the salt bridge prevented intramolecular docking of Trp 2 in one or both components of the dimer. In an alternative strategy to prevent intramolecular docking, we removed Trp2 by introducing the mutation W2G or blocked the hydrophobic acceptor pocket with an isoleucine side chain projecting into the cavity using the mutation A801. N-cadherin Fc fusion proteins with these mutations were then tested against our panel of K562 transfectants (FIG. 17a). In keeping with the explanation given in FIG. 5, the W2G mutant acted as a strand acceptor and therefore adhered strongly to the E89A mutant whereas the A80I mutant was a strand donor and adhered to the GG extension mutant. […]

The target in series [6] is T1, full length chicken N-cadherin with the …. Nature of the series: adhesion of K562 transfectants to N-cadherin Fc coated at 1 µg/ml; reversed by chelation of calcium. On the procedure: as §1
The target in series [7] is T2, full length chicken N-cadherin with the …. Nature of the series: adhesion of K562 transfectants to coated N-cadherin Fc. Here is the method: as §1

B1: chicken N-cadherin Fc fusion protein with the mutation E89A (Fc fusion, UniProt P10288 165-728, looked up)
chain: T3 sequence (looked up) with I80A, E89A
notes: extracellular domain; also called E89A mutant; E89A Fc fusion protein; not shown: hinge region, CH2 and CH3 domains of human IgG1 heavy chain (vector pIgSig)
On to B1, for which the values for the binding result in series [1] and in series [2] were “no binding (tested: Fc fusion protein coated at 1 µg/ml)” and “binds”, respectively.

B2: monomeric chicken N-cadherin-Fc with the double mutation W2G,D134A (Fc fusion, UniProt P10288 165-728, looked up)
chain: T3 sequence (looked up) with W2G, I80A, D134A
notes: extracellular domain; also called the double mutant W2G,D134A; not shown: hinge region, CH2 and CH3 domains of human IgG1 heavy chain (vector pIgSig)
B2: in series [3], the binding result was “no binding”.

B3: chicken N-cadherin-Fc fusion protein with the mutation W2G, dimeric (Fc fusion, UniProt P10288 165-728, looked up)
chain: T3 sequence (looked up) with W2G, I80A
notes: extracellular domain; Full length (EC1-EC5) Fc construct; also called W2G mutant; W2G protein; not shown: hinge region, CH2 and CH3 domains of human IgG1 heavy chain (vector pIgSig)
Turning to B3, the binding result in series [4], in series [5] and in series [1] was “binds” each time.

B4: chicken N-cadherin Fc fusion protein with the N-terminus extended by two glycine residues (GG) (Fc fusion)
chain: GGDWVIPPINLPENSRGPFPQELVRIRSDRDKSLSLRYSVTGPGADQPPTGIFIINPISGQLSVTKPLDREQIASFHLRAHAVDVNGNQVENPIDIVINVIDMNDNRPEFLHQVWNGTVPEGSKPGTYVMTVTAIDADDPNAQNGMLRYRILSQAPSSPSPNMFTINNETGDIITVAAGLDREKVQQYTLIIQATDMEGNPTYGLSNTATAVITVTDVNDNPPEFTAMTFYGEVPENRVDVIVANLTVTDKDQPHTPAWNARYQMTGGDPTGQFTILTDPNSNDGLVTVVKPIDFETNRMFVLTVAAENQVPLAKGIQHPPQSTATVSITVIDVNESPYFVPNPKLVRQEEGLLAGSMLTTFTARDPDRYMQQTSLRYSKLSDPANWLKIDPVNGQITTTAVLDRESIYVQNNMYNATFLASDNGIPPMSGTGTLQIYLLDINDNAPQVNPKEATTCETLQPNAINITAVDPDIDPNAGPFAFELPDSPPSIKRNWTIVRISGDHAQLSLRIRFLEAGIYDVPIVITDSGNPHASSTSVLKVKVCQCDINGDCTDVDRIVGAGLGTG
notes: extracellular domain; also called GG extension mutant; GG mutant; not shown: hinge region, CH2 and CH3 domains of human IgG1 heavy chain (vector pIgSig)
With B4, the figures for the binding result in series [6] and in series [7] were “binds” and “no binding (tested: Fc fusion protein coated at 1 µg/ml)”, respectively.
